The record followed here is patent publication US20190376053A1 (BOARD OF TRUSTEES OF THE UNIVERSITY OF ARKANSAS, published 2019).

Test [1] has as its target rat collagen (collagen type I) (rat, UniProt P02454 152-1207; P02466 86-1125). Put plainly: cell-based or functional assay.
The target of test [2] is T1, collagen fibril (porcine skin fiber, Nippi, Inc) (porcine).
T1 construct: also called collagen fiber; insoluble collagen fibril
Kind of test: collagen fibril binding assay (spin column, SDS-PAGE of the unbound protein, Scatchard plot).

Sequence of rat collagen (collagen type I) (P02454 152-1207 limits assumed, chain 1 of 2): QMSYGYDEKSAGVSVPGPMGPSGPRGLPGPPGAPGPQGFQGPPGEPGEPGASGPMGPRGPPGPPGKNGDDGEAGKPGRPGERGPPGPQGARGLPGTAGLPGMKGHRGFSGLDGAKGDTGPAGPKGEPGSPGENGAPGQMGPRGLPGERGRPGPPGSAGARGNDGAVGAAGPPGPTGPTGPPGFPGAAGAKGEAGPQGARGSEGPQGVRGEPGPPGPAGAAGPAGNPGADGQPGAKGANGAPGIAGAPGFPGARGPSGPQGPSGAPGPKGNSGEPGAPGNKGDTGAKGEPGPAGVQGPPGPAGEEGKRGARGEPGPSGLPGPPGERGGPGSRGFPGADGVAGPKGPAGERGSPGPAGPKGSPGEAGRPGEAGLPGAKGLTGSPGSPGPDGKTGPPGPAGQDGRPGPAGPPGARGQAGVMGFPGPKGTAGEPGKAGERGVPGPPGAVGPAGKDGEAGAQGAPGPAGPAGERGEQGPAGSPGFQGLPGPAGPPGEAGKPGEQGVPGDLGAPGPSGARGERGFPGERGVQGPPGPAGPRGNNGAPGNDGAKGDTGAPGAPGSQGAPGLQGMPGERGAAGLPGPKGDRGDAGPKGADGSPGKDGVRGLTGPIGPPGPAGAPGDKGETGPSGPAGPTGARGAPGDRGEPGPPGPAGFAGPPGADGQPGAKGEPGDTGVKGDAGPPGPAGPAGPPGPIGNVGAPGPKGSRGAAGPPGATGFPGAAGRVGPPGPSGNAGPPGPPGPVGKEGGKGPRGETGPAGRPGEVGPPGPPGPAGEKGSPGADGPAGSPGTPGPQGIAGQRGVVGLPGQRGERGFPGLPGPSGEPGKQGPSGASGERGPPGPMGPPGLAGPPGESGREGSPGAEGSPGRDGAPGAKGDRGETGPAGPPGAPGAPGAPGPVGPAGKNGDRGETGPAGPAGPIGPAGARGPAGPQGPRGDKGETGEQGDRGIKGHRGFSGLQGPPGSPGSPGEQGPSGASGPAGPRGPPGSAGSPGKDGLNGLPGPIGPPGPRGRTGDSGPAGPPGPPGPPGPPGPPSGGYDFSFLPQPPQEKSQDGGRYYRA
Sequence of rat collagen (collagen type I) (P02466 86-1125 limits assumed, chain 2 of 2): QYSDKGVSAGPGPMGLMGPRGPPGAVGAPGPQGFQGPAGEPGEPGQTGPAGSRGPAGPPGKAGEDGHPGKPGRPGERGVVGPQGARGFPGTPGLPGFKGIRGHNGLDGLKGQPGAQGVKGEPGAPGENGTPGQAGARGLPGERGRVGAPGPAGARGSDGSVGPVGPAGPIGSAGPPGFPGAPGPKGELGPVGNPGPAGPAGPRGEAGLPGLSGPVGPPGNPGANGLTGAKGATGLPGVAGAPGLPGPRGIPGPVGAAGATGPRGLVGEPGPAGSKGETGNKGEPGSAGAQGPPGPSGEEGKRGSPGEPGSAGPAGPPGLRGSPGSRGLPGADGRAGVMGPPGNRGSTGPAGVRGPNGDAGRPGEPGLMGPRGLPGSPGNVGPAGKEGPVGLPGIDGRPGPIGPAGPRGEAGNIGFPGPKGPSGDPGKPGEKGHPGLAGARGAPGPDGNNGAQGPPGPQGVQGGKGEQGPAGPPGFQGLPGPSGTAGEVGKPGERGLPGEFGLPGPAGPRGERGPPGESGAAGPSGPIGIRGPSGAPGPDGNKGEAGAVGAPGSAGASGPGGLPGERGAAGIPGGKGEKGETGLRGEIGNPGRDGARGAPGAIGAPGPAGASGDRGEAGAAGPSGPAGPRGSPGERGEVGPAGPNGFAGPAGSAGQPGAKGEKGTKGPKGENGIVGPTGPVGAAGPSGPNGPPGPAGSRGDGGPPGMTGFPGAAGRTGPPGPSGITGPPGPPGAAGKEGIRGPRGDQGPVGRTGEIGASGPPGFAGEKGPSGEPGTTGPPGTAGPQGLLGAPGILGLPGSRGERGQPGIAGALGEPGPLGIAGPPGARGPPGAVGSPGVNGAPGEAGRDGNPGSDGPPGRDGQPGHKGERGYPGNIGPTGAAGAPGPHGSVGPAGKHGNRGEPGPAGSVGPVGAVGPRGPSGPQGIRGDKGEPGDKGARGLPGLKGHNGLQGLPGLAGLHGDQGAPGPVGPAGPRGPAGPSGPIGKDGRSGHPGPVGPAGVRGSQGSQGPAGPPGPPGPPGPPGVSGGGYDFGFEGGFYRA

B1: tandem collagen-binding domain (s3a-s3b) derived from Clostridium histolyticum class I collagenase ColG (other)
chain: PITKEMEPNDDIKEANGPIVEGVTVKGDLNGSDDADTFYFDVKEDGDVTIELPYSGSSNFTWLVYKEGDDQNHIASGIDKNNSKVGTFKSTKGRHYVFIYKHDSASNISYSLNIKGLGNEKLKEKENNDSSDKATVIPNFNTTMQGSLLGDDSRDYYSFEVKEEGEVNIELDKKDEFGVTWTLHPESNINDRITYGQVDGNKVSNKVKLRPGKYYLLVYKYSGSGNYELRVNK
With B1, in test [1], the “collagen fibril thickness against the collagen control, 5:1 ratio” value was determined as 2 % less; the “fibril growth, absorption, higher ratios of tandem CBD” value turned out to be 0.005; the “fibril growth, absorption, lower ratios of CBD” value is 0.0217.

B2: collagen-binding domain s3b derived from Clostridium histolyticum class I collagenase ColG (other)
chain: GNEKLKEKENNDSSDKATVIPNFNTTMQGSLLGDDSRDYYSFEVKEEGEVNIELDKKDEFGVTWTLHPESNINDRITYGQVDGNKVSNKVKLRPGKYYLLVYKYSGSGNYELRVNK
notes: domain: s3b; also called ColGS3b; CBD (s3b)
For orientation: Kd means the constant that tells how readily two partners part at equilibrium. High values mean lower affinity, low ones higher affinity. For B2, the Kd in test [2] was roughly 100 µM.
